The text below walks through data of paper PMC12622831.

In experiment [1] the target is Dengue virus serotype 2 (ET300 strain) non-structural protein 1, C-terminally His-tagged, purified (Dengue virus serotype 2, strain ET300). The experiment can be described thus: SEC; purified His-tagged NS1, 0.5 mL on Superdex 200 increase 10/300 GL in PBS; fractions analysed by NS1 ELISA. (Size exclusion chromatography separates by hydrodynamic size, large species first.)

The target of experiment [2] is Dengue virus serotype 2 (ET300 strain) non-structural protein 1, untagged recombinant, expressed in suspension HEK293 cells (Dengue virus serotype 2, strain ET300). The experiment can be described thus: SEC; concentrated (about 10-fold, 520 μg/mL) NS1 expression medium, 0.5 mL on Superdex 200 increase 10/300 GL in PBS at 0.75 mL per min; NS1 in 0.25 mL fractions by ELISA and immunoblot.

For orientation: stoichiometry N means a count of units in the complex or per binding partner. “Dengue virus serotype 2 (ET300 strain) non-structural protein 1, C-terminally His-tagged, purified (natural protein)” registered a stoichiometry N in experiment [1] of 6. “Dengue virus serotype 2 (ET300 strain) non-structural protein 1, untagged recombinant, expressed in suspension HEK293 cells (natural protein)”: in experiment [2], the stoichiometry N came out at 6.
